To fix the notation:
B1: F6-18 (antibody, V domains shown)
VH: EEQLVESGGGLVRPGGSLRLSCVASGFSVSDYGMHWVRQAPGRGLEYVSAIRSHGDGTYYVNSVKGRFIISRDNSKNTLYLQMGSLSAEDMAVYYCARDRVWAHDYDDTAWLDAFDLWGQGTTVIVSS
VL: DIQMTQSPSTLSASVGDKVTITCRASQSVGSLLAWYQQKPGKAPKLLIYDASNLQRGVPSRFSGSGSGTEFTLTISSLQPDDFATYYCQQYKSHSPPFGQGTKLEIK
B2: MEDI8897 (antibody, V domains shown)
VH: QVQLVQSGAEVKKPGSSVMVSCQASGGLLEDYIINWVRQAPGQGPEWMGGIIPVLGTVHYGPKFQGRVTITADESTDTAYMELSSLRSEDTAMYYCATETALVVSETYLPHYFDNWGQGTLVTVSS
VL: DIQMTQSPSSLSAAVGDRVTITCQASQDIVNYLNWYQQKPGKAPKLLIYVASNLETGVPSRFSGSGSGTDFSLTISSLQPEDVATYYCQQYDNLPLTFGGGTKVEIKR
B3: F6-125 (antibody, V domains shown)
VH: QLQLVQSGTEVKKPGASVKVSCKASGYTFSDNAINWVRQAPGQGLEWLGWITANNGNTNYAQKIQGRVTMTTDTSTSTVYMELRSLGSDDTAVYYCAREVVNYGLGSLHFDYWGQGTLVTVSS
VL: SYELTQPPSVSVSPGQTVSISCSGDKLGNDYASWYQQKPGQSPLLVIYEDAKRPSGIPERFSGSNSGNTATLTISGTQAMDDADYYCQAWDGTTVIFGGGTKLTVL
B4: F6-10 (antibody, V domains shown)
VH: DALLLQSGGGLMQPGGSLRLSCAASEFTFNIHAMTWVRQSPGKGLEWVSGISSTGEGTYYTDSVKGRFTISRDNSKSTLYLQMNSLRAEDTATYFCARYSFRYGELRGTFDIWGQGVLVSVSS
VL: DIQMTQTPSTLSASVGDRVIITCRASQSVGDSVAWFQQKPGRAPKLLIYDTTNLERGVPSRFSGSFSGTAFTLTITRLQPDDFATYYCQQYDESWTFGQGTKVEVK
B5: F6-113 (antibody, V domains shown)
VH: QVQLQQWGAGLLKPSETLSLTCAVDGASVSDDDWTWIRQSPGKGLEWIGQIDQTGSFNYNPSLRSRVTISPDTSKNHFSLSLTSVTAADTALYYCARGGLVVTDVGQGWDAFDVWGQGTMVTVSS
VL: DIQLTQSPSSVSASVGDRITITCRASQDIDNWLAWYQQKPGEAPKLLIYAASTLQSGVPSRFSGSGAGTEFTLTITSLQPEDFAGYFCQQGDSFPLTFGGGTKVDIK

For orientation: EC50 means the midpoint of the concentration-response curve. A low value points to a more potent agent. The term Kd denotes the free concentration of one partner at which half of the binding sites on the other are occupied at equilibrium, for simple one-to-one binding. Lower therefore signals tighter binding.

The target in the first test is T1, RSV A2 pre-F (Respiratory syncytial virus A2). The experiment in a line: ELISA. Background: An ELISA detects its analyte on a solid surface through an enzyme-linked reagent.
As for B1, the midpoint of the response, the EC50, lay at 0.016 µg/mL.
In the case of B2, the midpoint of the response, the EC50, lay at 0.0146 µg/mL.

In another test the target is T1, RSV A2 pre-F. The experiment in a line: BLI. A general note: BLI is a label-free optical method that tracks binding on a fibre tip over time.
The molecule B1 showed a Kd of 0.0805 nM.
B2 displayed an equilibrium dissociation constant (Kd) of 0.122 nM.

Another test has as its target T1, RSV A2 pre-F. The experiment in a line: BLI. The source holds these as a separate data set.
Turning to B3, the Kd is < 0.001 nM.
Same read-out and setting: in the case of B2 it was 0.379 nM.
On the same count and under the same terms, in the case of B4 it was 0.994 nM; in that of B5, < 0.001 nM.

Another test has as its target T1, RSV A2 pre-F. The experiment in a line: ELISA. This is another data set of the same source.
Molecule B3 yielded an EC50 of 0.0144 µg/mL.
Molecule B2 had an EC50 of 0.0313 µg/mL.
Still for that read-out and setting: in the case of B4 it was 0.0307 µg/mL.
The molecule B5 returned an EC50 of 0.0133 µg/mL.

(Values after patent publication US20260347439 (published 2026).)
